According to ChEMBL document CHEMBL1649078, “Novel antiviral C5-substituted pyrimidine acyclic nucleoside phosphonates selected as human thymidylate kinase substrates” (J Med Chem, 2011):
Active and inactive are the calls of the source.

Columns and labels:
[1] = Inhibition of human recombinant UCK by Double reciprocal plot analysis
Homo sapiens [2] = species on record: Homo sapiens; test: Binding affinity to human recombinant UCK ATP binding site
Homo sapiens [3] = species on record: Homo sapiens; test: Displacement of MABA-CDP from human recombinant UCK by fluorescence competition assay
[4] = molecular target: Thymidine kinase, cytosolic (Homo sapiens) (UniProt P04183); test: Inhibition of human recombinant TK1-mediated thymidine phosphorylation ar 0.3 mM
Sequence of Thymidine kinase, cytosolic (Homo sapiens) (P04183 whole entry): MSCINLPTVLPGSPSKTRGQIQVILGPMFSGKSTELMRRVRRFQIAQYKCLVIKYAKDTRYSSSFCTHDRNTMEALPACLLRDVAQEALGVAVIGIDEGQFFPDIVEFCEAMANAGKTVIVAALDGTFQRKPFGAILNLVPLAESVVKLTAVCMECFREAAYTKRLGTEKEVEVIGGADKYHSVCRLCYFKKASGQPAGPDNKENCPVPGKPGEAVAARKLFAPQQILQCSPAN

Homo sapiens [5] = species on record: Homo sapiens; test: Activity at human recombinant UCK by Michaelis-Menten equation analysis
[6] = molecular target: Thymidine kinase 2, mitochondrial (Homo sapiens) (UniProt O00142); test: Inhibition of human recombinant TK2-mediated thymidine phosphorylation ar 0.3 mM
Sequence of Thymidine kinase 2, mitochondrial (Homo sapiens) (O00142 whole entry): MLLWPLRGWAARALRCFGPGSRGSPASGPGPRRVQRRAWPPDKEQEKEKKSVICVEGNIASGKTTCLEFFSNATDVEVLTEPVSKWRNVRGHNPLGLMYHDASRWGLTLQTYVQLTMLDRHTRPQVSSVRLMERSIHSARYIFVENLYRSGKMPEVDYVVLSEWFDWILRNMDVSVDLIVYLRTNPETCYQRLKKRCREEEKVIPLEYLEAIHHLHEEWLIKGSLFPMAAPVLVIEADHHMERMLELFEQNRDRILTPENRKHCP

Homo sapiens [7] = species on record: Homo sapiens; test: Binding affinity to human recombinant UCK dCMP binding site
[8] = Displacement of Mant-ATP from human recombinant UCK by fluorescence competition assay; settings: read-out: Kd(app)
[9] = substrate: Cc1cn(C/C=C/P(=O)(O)O)c(=O)[nH]c1=O; test: (§1) Activity at human recombinant TMPK by Michaelis-Menten equation analysis
[10] = substrate: O=c1[nH]c(=O)n(C/C=C/CP(=O)(O)O)cc1Br; test: as §1
[11] = substrate: O=c1[nH]c(=O)n(C/C=C/CP(=O)(O)O)cc1F; test: as §1
[12] = substrate: O=c1[nH]c(=O)n(C/C=C/CCP(=O)(O)O)cc1F; test: as §1
[13] = substrate: O=c1ccn(C/C=C/CP(=O)(O)O)c(=O)[nH]1; test: as §1
[14] = substrate: O=c1[nH]c(=O)n(C/C=C/CP(=O)(O)O)cc1Cl; test: as §1
[15] = substrate: Cc1cn([C@H]2C[C@H](O)[C@@H](COP(=O)(O)O)O2)c(=O)[nH]c1=O; test: as §1
[16] = substrate: O=c1[nH]c(=O)n([C@H]2C[C@H](O)[C@@H](COP(=O)(O)O)O2)cc1Br; test: as §1
[17] = substrate: Cc1cn(C/C=C/CP(=O)(O)O)c(=O)[nH]c1=O; test: as §1
[18] = substrate: O=c1ccn(C/C=C/CCP(=O)(O)O)c(=O)[nH]1; test: as §1
[19] = substrate: O=c1ccn([C@H]2C[C@H](O)[C@@H](COP(=O)(O)O)O2)c(=O)[nH]1; test: as §1
[20] = substrate: O=c1[nH]c(=O)n(C/C=C/CCP(=O)(O)O)cc1Br; test: as §1
[21] = substrate: O=c1[nH]c(=O)n(C/C=C/CCP(=O)(O)O)cc1Cl; test: as §1
[22] = substrate: Cc1cn(C/C=C/CCP(=O)(O)O)c(=O)[nH]c1=O; test: as §1
[23] = substrate: Cc1cn(C/C=C/P(=O)(O)O)c(=O)[nH]c1=O; test: (§2) Ratio of kcat/km for human recombinant TMPK by Michaelis-Menten equation analysis
[24] = substrate: O=c1[nH]c(=O)n(C/C=C/CP(=O)(O)O)cc1Br; test: as §2
[25] = substrate: O=c1[nH]c(=O)n(C/C=C/CP(=O)(O)O)cc1F; test: as §2
[26] = substrate: O=c1[nH]c(=O)n(C/C=C/CCP(=O)(O)O)cc1F; test: as §2
[27] = substrate: O=c1ccn(C/C=C/CP(=O)(O)O)c(=O)[nH]1; test: as §2
[28] = substrate: O=c1[nH]c(=O)n(C/C=C/CP(=O)(O)O)cc1Cl; test: as §2
[29] = substrate: Cc1cn([C@H]2C[C@H](O)[C@@H](COP(=O)(O)O)O2)c(=O)[nH]c1=O; test: as §2
[30] = substrate: O=c1[nH]c(=O)n([C@H]2C[C@H](O)[C@@H](COP(=O)(O)O)O2)cc1Br; test: as §2
[31] = substrate: O=c1[nH]c(=O)n(C/C=C/P(=O)(O)O)cc1Cl; test: as §2
[32] = substrate: Cc1cn(C/C=C/CP(=O)(O)O)c(=O)[nH]c1=O; test: as §2
[33] = substrate: O=c1ccn(C/C=C/CCP(=O)(O)O)c(=O)[nH]1; test: as §2
[34] = substrate: O=c1ccn([C@H]2C[C@H](O)[C@@H](COP(=O)(O)O)O2)c(=O)[nH]1; test: as §2
[35] = substrate: Cc1cn([C@H]2C[C@H](N=[N+]=[N-])[C@@H](COP(=O)(O)O)O2)c(=O)[nH]c1=O; test: as §2
[36] = substrate: O=c1[nH]c(=O)n(C/C=C/CCP(=O)(O)O)cc1Br; test: as §2
[37] = substrate: O=c1[nH]c(=O)n(C/C=C/CCP(=O)(O)O)cc1Cl; test: as §2
[38] = substrate: Cc1cn(C/C=C/CCP(=O)(O)O)c(=O)[nH]c1=O; test: as §2

## O=c1[nH]c(=O)n(C/C=C/CP(=O)(O)O)cc1Cl
[1]
  Ki: 250 µM
Homo sapiens [2]
  Activity: Active
Homo sapiens [3]
  Activity: inactive
[4]
  inhibition: 15%
Homo sapiens [5]
  Activity: inactive
[6]
  inhibition: 15%
Homo sapiens [7]
  Activity: Active
[8]
  Kd: 170 µM

B1: Thymidylate kinase (Homo sapiens), P23919 (protein)
chain: MAARRGALIVLEGVDRAGKSTQSRKLVEALCAAGHRAELLRFPERSTEIGKLLSSYLQKKSDVEDHSVHLLFSANRWEQVPLIKEKLSQGVTLVVDRYAFSGVAFTGAKENFSLDWCKQPDVGLPKPDLVLFLQLQLADAAKRGAFGHERYENGAFQERALRCFHQLMKDTTLNWKMVDASKSIEAVHEDIRVLSEDAIRTATEKPLGELWK
[9]
  Km: 1000 µM
  kcat: 0.6 s⁻¹
[10]
  Km: 20 µM
  kcat: 0.9 s⁻¹
[11]
  Km: 1000 µM
  kcat: 0.73 s⁻¹
[12]
  Km: 1900 µM
  kcat: 0.09 s⁻¹
[13]
  Km: 1700 µM
  kcat: 0.48 s⁻¹
[14]
  Km: 130 µM
  kcat: 0.5 s⁻¹
[15]
  Km: 20 µM
  kcat: 3 s⁻¹
[16]
  Km: 10 µM
  kcat: 1.2 s⁻¹
[17]
  Km: 24 µM
  kcat: 0.84 s⁻¹
[18]
  Km: 2500 µM
  kcat: 0.074 s⁻¹
[19]
  Km: 170 µM
  kcat: 4.8 s⁻¹
[20]
  Km: 160 µM
  kcat: 0.058 s⁻¹
[21]
  Km: 150 µM
  kcat: 0.1 s⁻¹
[22]
  Km: 100 µM
  kcat: 0.32 s⁻¹
[23]
  kcat/Km: 600 M⁻¹ s⁻¹
[24]
  kcat/Km: 45000 M⁻¹ s⁻¹
[25]
  kcat/Km: 730 M⁻¹ s⁻¹
[26]
  kcat/Km: 47 M⁻¹ s⁻¹
[27]
  kcat/Km: 280 M⁻¹ s⁻¹
[28]
  kcat/Km: 4100 M⁻¹ s⁻¹
[29]
  kcat/Km: 150000 M⁻¹ s⁻¹
[30]
  kcat/Km: 120000 M⁻¹ s⁻¹
[31]
  kcat/Km: 80 M⁻¹ s⁻¹
[32]
  kcat/Km: 35000 M⁻¹ s⁻¹
[33]
  kcat/Km: 30 M⁻¹ s⁻¹
[34]
  kcat/Km: 28000 M⁻¹ s⁻¹
[35]
  kcat/Km: 1000 M⁻¹ s⁻¹
[36]
  kcat/Km: 360 M⁻¹ s⁻¹
[37]
  kcat/Km: 660 M⁻¹ s⁻¹
[38]
  kcat/Km: 3200 M⁻¹ s⁻¹
